Substrate: O=c1oc2c(O)c(O)ccc2cc1-c1nc2ccccc2s1
Test: Inhibition kinetics of human S-COMT catalysed O-methylation of 3-BTD
Assay type: biochemical
Conditions: other: 3-BTD as substrate, no inhibitor; pH 7.4; 37.0 °C

B1: recombinant human S-COMT (Homo sapiens) (protein)
chain: MGDTKEQRILNHVLQHAEPGNAQSVLEAIDTYCEQKEWAMNVGDKKGKIVDAVIQEHQPSVLLELGAYCGYSAVRMARLLSPGARLITIEINPDCAAITQRMVDFAGVKDKVTLVVGASQDIIPQLKKKYDVDTLDMVFLDHWKDRYLPDTLLLEECGLLRKGTVLLADNVICPGAPDFLAHVRGSSCFECTHYQSFLEYREVVDGLEKAIYKGPGSEAGP
notes: made in house
Km: 0.38 ± 0.029 µM | Vmax: 13.8 ± 0.30 nmol/min/mg protein
